From doi:10.1101/2022.09.28.508705

Columns and labels:
Assay in all cases: crystal structure
[1] = biological target: mVSG397 N-terminal domain (T. brucei brucei, strain Lister 427)
[2] = biological target: mVSG531 N-terminal domain (T. brucei brucei, strain Lister 427)
[3] = biological target: mVSG1954 N-terminal domain (T. brucei brucei, strain Lister 427)

Q: With “mVSG397 N-terminal domain (domain or fragment)” as the substance, how does the stoichiometry N [1] read?
A: 2

Q: “mVSG531 N-terminal domain (domain or fragment)” was tested. Which stoichiometry N [2] did it give?
A: 2

Q: Which stoichiometry N [3] does the source give for “mVSG1954 N-terminal domain (domain or fragment)” here?
A: 3
